One test has as its system NCI-H292 cells. Put plainly: NCI-H292 growth assay. In kind it is cell-based, human. The settings on record: 120 hours, CellTiter-Glo. Here is the method: Inhibition of EGFR-dependent cell growth was assessed by measuring viability of the EGFR over-expressing human tumor cell lines, NCI-H292 and NCI-H322 (American Type Culture Collection, cat. #CRL-1848 & #CRL-5806, respectively), following exposure to EGFR-binding FN3 domains. Cells were plated at 500 cells/well (NCI-H292) or 1,000 cells/well (NCI-H322) in opaque white 96-well tissue culture-treated plates (Nunc) in 1004/well of RPMI medium (Gibco) containing GlutaMAX™ and 10 mM HEPES, supplemented with 10% heat inactivated fetal bovine serum (Gibco) and 1% penicillin/streptomycin (Gibco), and allowed to attach overnight at 37° C. in a humidified 5% CO2 atmosphere. Cells were treated by addition of 54/well of phosphate-buffered saline (PBS) containing a concentration range of EGFR-binding FN3 domains. […] Viable cells were detected by addition of 754/well of CellTiter-Glo® reagent (Promega), followed by mixing on a plate shaker for 2 minutes, and incubation in the dark at room temperature for a further 10 minutes. Plates were read on a SpectraMax M5 plate reader (Molecular Devices) set to luminescence mode, with a read time of 0.5 seconds/well against a blank of medium only. […] IC50 values were determined by fitting data to the equation for a sigmoidal dose response with variable slope using GraphPad Prism 4 (GraphPad Software).
On the technique in general: Cellular ATP, detected with luciferase, serves as a proxy for viable cell number.

The target in test [1] is T1, EGFR-Fc (recombinant human extracellular domain of EGFR fused to an IgG1 Fc) (Homo sapiens, UniProt P00533).
T1 construct: purchased R&D Systems
Put plainly: Affinity of FN3 domains to EGFR-Fc by surface plasmon resonance (ProteOn), incl. off-rate screen. In kind it is binding. The settings on record: SPR ProteOn, 1:1 Langmuir fit. The method, then:
Select EGFR-binding FN3 domains were screened to identify those with slow off-rates (koff) in binding to EGFR-Fc on a ProteOn XPR-36 instrument (Bio-Rad) to facilitate selection of high affinity binders. Goat anti-human Fc IgG (R&D systems), at a concentration of 5 μg/mL, was directly immobilized via amine coupling (at pH 5.0) on all 6 ligand channels in horizontal orientation on the chip with a flow rate of 30 μL/min in PBS containing 0.005% Tween-20. The immobilization densities averaged about 1500 Response Units (RU) with less than 5% variation among different channels. EGFR-Fc was captured on the anti-human Fc IgG surface to a density around 600 RU in vertical ligand orientation. All tested FN3 domains were normalized to a concentration of 1 μM and tested for their binding in horizontal orientation. […] The dissociation phase was monitored for 10 minutes at a flow rate of 100 μL/min. […]
Binding affinity of selected EGFR-binding FN3 domains to recombinant EGFR extracellular domain was further characterized by surface Plasmon resonance methods using a Proteon Instrument (BioRad). […] The dissociation phase for all concentrations of each EGFR-binding FN3 domain was monitored at a flow rate of 100 μL/min for 30 minutes (for those with koff˜10^−2 s^−1 from off-rate screening), or 1 hour (for those with koff˜10^−3 s^−1 or slower). […]
A general note: Surface plasmon resonance follows binding to a sensor surface in real time, without labels.

What is called IC50 is the concentration that inhibits the measured activity by half. Broadly, the Kd is the concentration at which binding is half-saturated.

B1: P54AR4-47: EGFR-binding FN3 domain, SEQ ID NO: 20 (protein)
chain: LPAPKNLVVSEVTEDSLRLSWGYNGDHFDSFLIQYQESEKVGEAINLTVPGSERSYDLTGLKPGTEYTVSIYGVHNVYKDTNMRGLPLSAEFTT
modifications: EGFR binding FN3 domain
Consider B1, for which, in the test with NCI-H292 cells, the IC50 stood at 44 nM. Further, the Kd in test [1] was 2.51 nM.

These data come from US11702475B2, “Cysteine engineered fibronectin type III domain binding molecules” (Janssen Biotech, Inc., priority 2013, dated 2023).
